Measured values: patent US20050064507A1, “Determining kinase specificity” (priority 2003, published 2005)

Experiments:
Type in all cases: biochemical
[1] = biological target: T1, PKC-alpha (Homo sapiens, UniProt P17252); assay: In vitro kinase assay: peptide phosphorylation by PKC-alpha
T1 construct: purchased Calbiochem
Method: (§1) Catalytically active preparations of the kinases of interest were either purchased or prepared. Purchased and tested active kinase preparations including the following: PKC-alpha, PKC-delta, PKC-epsilon, PKC-zeta, PKC-mu, PKA, PKG from Calbiochem, ROK alpha/ROCK-II, active from Upstate Biotechnology, and AKT1 from Panvera.
(§2) The conditions of the kinase assay and the amount of active kinase used varied with the kinase and with the accuracy needed. For a typical experiment, 5-20 ng of kinase was used per well and each peptide pool was assayed in duplicate wells. Note that the absolute amount of kinase used was not usually a critical parameter, because the desired information related to specificity of the kinase not its absolute activity, and robustness of the assay depends on comparisons of the same amount of kinase on different peptides. The combination of kinase concentration and assay duration was modified to assure that the stoichiometry of peptide phosphorylation never exceeded 5%. The choice of kinase buffer depended on the kinase being analyzed. For studies of PKC, 100 mM HEPES, 0.05% Triton-X100, 1 mM CaCl2, 20 mM MgCl2, 0.2 mg/ml phosphatidyl serine (Avanti Polar Lipids), PMA 100 ng/ml was typically used. The lipid stock was prepared by transferring 3 mg phosphatidyl serine into iced mixture of 450 μl water plus 50 μl of 10% Triton-X100, sonicating 10 times on ice for 1 sec each.
(§3) The kinase reaction mixture was assembled by sequential addition to a tube held on ice of: 5 μl peptide (100 μM for final concentration of 10 μM), 15 μl of kinase (typically 5 ng/well, in appropriate kinase buffer), 30 μl of ATP (1 uCi/well of ^32P-gamma ATP in a stock of 167 μM cold ATP in the kinase buffer; for final concentration for 100 μM ATP). The mixture was rapidly warmed to desired reaction temperature (30° C. for PKC) and incubated for the desired duration (usually 10 minutes). The kinase assay was terminated by transfer to 4° C. water batch, and rapid addition of an equal volume (50 μl) of stop solution [0.1M ATP+0.1M EDTA in water, pH 8].
(§4) The peptides were then captured from the reaction mixture by transfer to a Reacti-Bind Streptavidin High Binding Capacity Coated Plates (HBC) (Pierce Biotechnology) as follows. The HBC plates were pre-rinsed three times with PBS/Tween PBS/Tween20 0.05% (PBS/Tween). Part of all of the reaction mixture was then transferred wells of a HBC plate pre-filled with 90 μl of phosphate-buffered saline (PBS); typically each aliquots of each phosphorylation reaction were transferred to duplicate HBC plates to assure accuracy by additional replication
(§5) For kinase assays done at the standard peptide concentration of 10 μM, the peptide concentration in the reaction mixture becomes 5 μM after addition of the stop solution; consequently 10 μl of the reaction (50 pMoles of peptide) was transferred to the HBC plate. More generally, the amount of reaction mixture transferred was estimated to be about 50 pMoles of peptide. […] The HBC plates were incubated for 0.5 to 1.5 hr at room temperature for complete binding of biotinylated peptides to plate-bound streptavidin. The HBC plates were then washed extensively with PBS/Tween. Five washes were done routinely and additional wash steps were added if the wash solution removed from the plate had measurable radioactivity as detected using a Geiger counter. This step is essential to obtaining a good the signal to noise ratio because the fraction of radioactivity incorporated in the peptides was a tiny fraction of the total in the reaction mixture. The wells were air-dried. A volume of 40-50 μl of microScint-20 (Packard Instruments) was added to each well. The plates were covered with stick-on film sheet. Radioactive emissions were measured in a TopCount NXT Microplate Scintillation and Luminescence Counter (Packard Instruments). Typically samples were counted for 5 minutes (or more) to improve the signal to noise ratio when counts were low. […]

[2] = biological target: T2, PKC-epsilon (Homo sapiens, UniProt Q02156); assay: In vitro kinase assay: peptide phosphorylation by PKC-epsilon; details: peptide concentration 1 uM
T2 construct: purchased Calbiochem
T2 sequence (Q02156 1-737): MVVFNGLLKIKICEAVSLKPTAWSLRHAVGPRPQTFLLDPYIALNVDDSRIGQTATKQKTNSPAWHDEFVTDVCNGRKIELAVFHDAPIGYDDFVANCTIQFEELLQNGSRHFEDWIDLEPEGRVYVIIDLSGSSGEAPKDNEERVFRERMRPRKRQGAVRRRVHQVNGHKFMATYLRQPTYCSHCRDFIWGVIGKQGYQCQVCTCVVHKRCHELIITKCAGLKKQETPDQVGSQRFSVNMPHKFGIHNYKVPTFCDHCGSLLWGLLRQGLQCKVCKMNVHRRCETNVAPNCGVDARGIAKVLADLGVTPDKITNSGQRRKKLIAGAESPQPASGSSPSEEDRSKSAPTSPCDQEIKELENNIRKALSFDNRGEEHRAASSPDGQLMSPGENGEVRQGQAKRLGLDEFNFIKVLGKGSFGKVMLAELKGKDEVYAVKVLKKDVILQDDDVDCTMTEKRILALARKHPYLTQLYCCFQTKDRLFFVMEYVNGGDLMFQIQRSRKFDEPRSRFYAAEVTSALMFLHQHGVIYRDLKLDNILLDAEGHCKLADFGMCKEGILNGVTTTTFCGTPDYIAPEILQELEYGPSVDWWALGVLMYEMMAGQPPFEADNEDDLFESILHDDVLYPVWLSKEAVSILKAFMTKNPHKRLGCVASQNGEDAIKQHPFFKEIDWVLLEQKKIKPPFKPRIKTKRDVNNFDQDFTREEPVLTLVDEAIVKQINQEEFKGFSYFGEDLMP
Method: as §1, §2, §3, §4, §5

[3] = biological target: T3, PKC-zeta (Homo sapiens, UniProt Q05513); assay: In vitro kinase assay: peptide phosphorylation by PKC-zeta
T3 construct: purchased Calbiochem
T3 sequence (Q05513 1-592): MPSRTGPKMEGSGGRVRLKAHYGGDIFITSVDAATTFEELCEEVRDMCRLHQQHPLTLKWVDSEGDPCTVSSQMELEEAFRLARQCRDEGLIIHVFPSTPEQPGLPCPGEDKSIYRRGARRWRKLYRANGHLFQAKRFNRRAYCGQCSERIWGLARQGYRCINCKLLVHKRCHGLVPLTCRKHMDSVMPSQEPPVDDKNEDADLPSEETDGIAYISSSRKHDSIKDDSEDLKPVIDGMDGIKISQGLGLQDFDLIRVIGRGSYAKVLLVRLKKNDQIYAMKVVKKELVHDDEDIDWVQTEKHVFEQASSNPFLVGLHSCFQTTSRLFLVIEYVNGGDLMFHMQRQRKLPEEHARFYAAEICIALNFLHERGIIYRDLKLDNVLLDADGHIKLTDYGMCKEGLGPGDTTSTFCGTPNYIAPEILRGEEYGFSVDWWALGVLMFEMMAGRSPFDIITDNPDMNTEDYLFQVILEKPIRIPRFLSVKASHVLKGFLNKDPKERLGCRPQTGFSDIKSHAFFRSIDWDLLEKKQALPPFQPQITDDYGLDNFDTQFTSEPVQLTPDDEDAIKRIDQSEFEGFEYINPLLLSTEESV
Method: as §1, §2, §3, §4, §5

| Substance | phosphorylation by PKC alpha ([1]; peptide concentration 1 uM) | phosphorylation by PKC alpha ([1]; peptide concentration 10 uM) | phosphorylation by PKC epsilon [2] | phosphorylation by PKC zeta ([3]; peptide concentration 1 uM) | phosphorylation by PKC zeta ([3]; peptide concentration 10 uM) |
| --- | --- | --- | --- | --- | --- |
| 115 (NRKKKRTSFKRKA) [compound 115] | 55 | 56 | 91 | 11 | 10 |
| 116 (EEGTFRSSIRRLSTRRR) [compound 116] | 70 | 57 | 92 | 100 | 100 |
| 117 (NRKKKRTSFKRKA) [compound 117] | 40 | 39 | 67 | 20 | 11 |
| 118 (RPQNTLKASKKKKRASFKRK) [compound 118] | 46 | 60 | 89 | 46 | 57 |
| 119 (KKRFSFKKSFKLSGFSFKKN) [compound 119] | 94 | 98 | 81 | 20 | 20 |
| 120 (AKRRRLSSLRASTSK) [compound 120] | 55 | 58 | 56 | 43 | 34 |
| 121 (LRRRSLRRSNSISKSPGP) [compound 121] | 33 | 29 | 49 | 60 | 56 |
| 122 (RAITSTLASSFKRRR) [compound 122] | 43 | 44 | 72 | 20 | 17 |
| 123 (KKRFSFKKSFKLSGFSFKKN) [compound 123] | 58 | 73 | 67 | 20 | 20 |
| 124 (PRLIRRGSKKRPAR) [compound 124] | 48 | 24 | 49 | 45 | 32 |
| 125 (PLKEKKRERKTSSKSSVRKR) [compound 125] | 34 | 31 | 48 | 13 | 12 |
| 126 (KAIKAIEGGQKFARKSTRRS) [compound 126] | 36 | 34 | 69 | 46 | 56 |
| 127 (SQVQKQRSAGSFKRNSIKKI) [compound 127] | 40 | 39 | 32 | 19 | 19 |
| 128 (QQVDRERPHVRRRRGTFKRS) [compound 128] | 25 | 33 | 32 | 14 | 9 |
| 129 (VQRHRSMRKTFARYLSFRRD) [compound 129] | 58 | 37 | 65 | 51 | 31 |
| 130 (EYLERRASRRRAV) [compound 130] | 38 | 38 | 46 | 36 | 39 |
| 131 (WKGKRRSKARKKRK) [compound 131] | 49 | 22 | 43 | 7 | 6 |
| 132 (GFLNEPLSSKSQRRKSLKLK) [compound 132] | 24 | 30 | 47 | 19 | 61 |
| 133 (LEKRGMLGKRPRRKSSRRKK) [compound 133] | 17 | 16 | 31 | 27 | 30 |
| 134 (RSRSRSRSKSKDKRKSRKRS) [compound 134] | 54 | 39 | 32 | 5 | 5 |
| 135 (KKKFRTPSFLKKSKK) [compound 135] | 56 | 19 | 27 | 11 | 13 |
| 136 (RARRDSLKKIEIW) [compound 136] | 26 | 28 | 33 | 6 | 9 |
| 137 (PSKSPSKKKKKFRTPSFLKK) [compound 137] | 34 | 38 | 32 | 4 | 5 |
